For data set [1], the target named is humanized APP bearing the Swedish variant (a murine APP in which the Aβ1-42 region corresponds to the human Aβ1-42), P12023.
In data set [2] the target is T1, humanized wild type APP (hAPPwt), P12023.
T1 chain: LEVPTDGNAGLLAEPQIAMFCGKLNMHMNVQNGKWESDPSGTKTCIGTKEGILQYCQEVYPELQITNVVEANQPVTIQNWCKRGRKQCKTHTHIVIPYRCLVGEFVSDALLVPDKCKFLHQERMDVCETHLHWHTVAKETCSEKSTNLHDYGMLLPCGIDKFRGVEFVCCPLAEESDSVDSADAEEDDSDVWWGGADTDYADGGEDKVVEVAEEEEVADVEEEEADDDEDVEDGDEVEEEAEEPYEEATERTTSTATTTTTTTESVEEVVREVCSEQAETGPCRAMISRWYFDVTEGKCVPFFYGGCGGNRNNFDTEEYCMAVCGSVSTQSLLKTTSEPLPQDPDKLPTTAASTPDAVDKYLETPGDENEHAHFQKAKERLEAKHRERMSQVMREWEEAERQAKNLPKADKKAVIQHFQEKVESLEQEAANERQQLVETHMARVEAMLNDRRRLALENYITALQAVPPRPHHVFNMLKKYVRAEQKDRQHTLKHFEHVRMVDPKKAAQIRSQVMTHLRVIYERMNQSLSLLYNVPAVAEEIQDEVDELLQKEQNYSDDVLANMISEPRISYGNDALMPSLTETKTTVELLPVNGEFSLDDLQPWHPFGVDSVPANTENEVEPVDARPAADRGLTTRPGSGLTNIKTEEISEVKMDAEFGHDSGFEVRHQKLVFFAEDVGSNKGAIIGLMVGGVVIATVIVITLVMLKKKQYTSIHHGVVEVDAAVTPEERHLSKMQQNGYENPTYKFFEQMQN

In data set [3] the target is hAPP717 (variant of humanized APP), P12023.
Data set [4] concerns the target T2, mouse APP (endogenous β-amyloid precursor protein), P12023.
T2 chain: T1 chain

Positions count from the first letter of the chain named.

B1: BACE2 (endogenous, in cultured mouse astrocytes and neurons) (protein)
chain: ALEPVRATANFLAMVDNLQGDSGRGYYLEMLIGTPPQKVQILVDTGSSNFAVAGAPHSYIDTYFDSESSSTYHSKGFDVTVKYTQGSWTGFVGEDLVTIPKGFNSSFLVNIATIFESENFFLPGIKWNGILGLAYAALAKPSSSLETFFDSLVAQAKIPDIFSMQMCGAGLPVAGSGTNGGSLVLGGIEPSLYKGDIWYTPIKEEWYYQIEILKLEIGGQNLNLDCREYNADKAIVDSGTTLLRLPQKVFDAVVEAVARTSLIPEFSDGFWTGAQLACWTNSETPWAYFPKISIYLRDENASRSFRITILPQLYIQPMMGAGFNYECYRFGISSSTNALVIGATVMEGFYVVFDRAQRRVGFAVSPCAEIEGTTVSEISGPFSTEDIASNCVPAQALNEPILWIVSYALMSVCGAILLVLILLLLLPLHCRHAPRDPEVVNDESSLVRHRWK
Consider B1, for which the “relative amount of Aβ 1-19 and Aβ 1-20 normalized to Aβ1-40 (ProteinChip array coated with 6E10)” value in data set [1] is “BACE2 mediated cleavages (at +19 and +20 of Aβ) were much higher in cultured astrocytes as compared to neurons”.

B2: human BACE1 (full-length, expressed from recombinant adenovirus) (protein)
chain: ETDEEPEEPGRRGSFVEMVDNLRGKSGQGYYVEMTVGSPPQTLNILVDTGSSNFAVGAAPHPFLHRYYQRQLSSTYRDLRKGVYVPYTQGKWEGELGTDLVSIPHGPNVTVRANIAAITESDKFFINGSNWEGILGLAYAEIARPDDSLEPFFDSLVKQTHVPNLFSLQLCGAGFPLNQSEVLASVGGSMIIGGIDHSLYTGSLWYTPIRREWYYEVIIVRVEINGQDLKMDCKEYNYDKSIVDSGTTNLRLPKKVFEAAVKSIKAASSTEKFPDGFWLGEQLVCWQAGTTPWNIFPVISLYLMGEVTNQSFRITILPQQYLRPVEDVATSQDDCYKFAISQSSTGTVMGAVIMEGFYVVFDRARKRIGFAVSACHVHDEFRTAAVEGPFVTLDMEDCGYNIPQTDESTLMTIAYVMAAICALFMLPLCLMVCQWRCLRCLRQQHDDFADDISLLK
For the protein B2, the “+11 derived β-CTF in neurons (immunoprecipitation with CT15)” value in data set [2] is “when neurons co-expressing human BACE1 and hAPPwt or hAPPswe or hAPP717 there is secreted a peptide corresponding to the +11 derived β-CTF (+11-CTF) in addition to the +1 derived β-CTF”; in data set [1] it was “when neurons co-expressing human BACE1 and hAPPwt or hAPPswe or hAPP717 there is secreted a peptide corresponding to the +11 derived β-CTF (+11-CTF) in addition to the +1 derived β-CTF”; in data set [3] it was “when neurons co-expressing human BACE1 and hAPPwt or hAPPswe or hAPP717 there is secreted a peptide corresponding to the +11 derived β-CTF (+11-CTF) in addition to the +1 derived β-CTF”. In addition, the “secretion of human Aβ11-40 (IP-MS of conditioned media with 4G8)” value was “now revealed the secretion of human Aβ11-40 peptide in addition to the murine Aβ11-40 peptide from murine neurons co-expressing human BACE1 and hAPPwt” in data set [2]; “The human Aβ11-40 peptides are also secreted by primary neurons co expressing human BACE1 and hAPPswe or hAPP717” in data set [1]; “The human Aβ11-40 peptides are also secreted by primary neurons co expressing human BACE1 and hAPPswe or hAPP717” in data set [3]. Further, the “secretion of Aβ peptides into culture medium of BACE1 deficient astrocytes” value in data set [1] was “BACE1 deficient astrocytes co-infected with adenoviruses expressing both APPswe and BACE1 restored the ability to secrete Aβ peptides into culture medium”.

B3: mouse BACE1 (endogenous, beta-site APP-cleaving enzyme 1) (protein)
chain: B2 chain with P6S, V162I, L165I, S180T, V182A, I340V, L393A, Q443H
B3: the “secretion of Aβ peptides (IP-MS of conditioned media with 4G8)” value in data set [2] was “the human and murine Aβ1-40 and Aβ1-42 were secreted, however, the human Aβ11-40 peptide was not secreted into culture media from murine primary neurons infected with adenovirus expressing hAPPwt”. In addition, the “secretion of Aβ peptides from primary cortical neurons (IP-MS of conditioned media with 4G8)” value in data set [4] is on record as “secretion of these Aβ species is abolished from BACE1-/- neurons except for the Aβ 17-40 (p3) fragment”. In data set [1], the “Aβ1-40 and Aβ1-42 in conditioned media of astrocytes (Aβ ELISA)” value was “Aβ1-40 and Aβ1-42 were easily detected from BACE1+/+ and BACE1+/- astrocyte cultures by Aβ ELISA assay, but were not detectable from BACE1-/- cultures”; the “Aβ1-40 and Aβ1-42 in conditioned media of neurons (quantitative sandwich ELISA)” value was “showed high levels of Aβ1-40 and Aβ1-42 while undetectable levels of Aβ1-40 and Aβ1-42 were observed from media of BACE1-/- cultures expressing APPswe”.

For the origin of these results see patent publication US20020157122.
